Broadly, the Km is the substrate concentration at which the rate is half of its maximum. Broadly, the Vmax is the rate approached at saturating substrate.

Km and Vmax data for one substance are collected here from PMC9836055.

This series has as its system CC(=O)Oc1ccc([N+](=O)[O-])cc1. In words: purified protein. The note with it: PBS, 37 °C, 0.25 mg/mL enzyme.

With “Lsa45 (Leptospiral surface adhesin of 45 kDa) (Leptospira interrogans serovar Copenhageni str. Fiocruz L1-130)”, the Km worked out at 849.3 ± 15.30 µM and the maximum rate (Vmax) was 219 µM/min.
